Read-outs that look alike come from different tables or passages of the source.

The values that follow come from publication PMC2212970.

Common to all, as to assay: EMSA
Data set [1] deals with T1, SLPI (secretory leucoprotease inhibitor) (UniProt P03973 26-132).
The next data set concerns the target NF-kB p65 (UniProt Q04206 1-551).
Data set [2] has as its target T1, SLPI (secretory leucoprotease inhibitor). This is another data set of the same source.

T1 sequence (P03973 26-132): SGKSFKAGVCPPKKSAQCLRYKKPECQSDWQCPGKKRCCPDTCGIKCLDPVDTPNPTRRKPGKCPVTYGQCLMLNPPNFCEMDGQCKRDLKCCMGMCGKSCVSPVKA
NF-kB p65, sequence (Q04206 whole entry): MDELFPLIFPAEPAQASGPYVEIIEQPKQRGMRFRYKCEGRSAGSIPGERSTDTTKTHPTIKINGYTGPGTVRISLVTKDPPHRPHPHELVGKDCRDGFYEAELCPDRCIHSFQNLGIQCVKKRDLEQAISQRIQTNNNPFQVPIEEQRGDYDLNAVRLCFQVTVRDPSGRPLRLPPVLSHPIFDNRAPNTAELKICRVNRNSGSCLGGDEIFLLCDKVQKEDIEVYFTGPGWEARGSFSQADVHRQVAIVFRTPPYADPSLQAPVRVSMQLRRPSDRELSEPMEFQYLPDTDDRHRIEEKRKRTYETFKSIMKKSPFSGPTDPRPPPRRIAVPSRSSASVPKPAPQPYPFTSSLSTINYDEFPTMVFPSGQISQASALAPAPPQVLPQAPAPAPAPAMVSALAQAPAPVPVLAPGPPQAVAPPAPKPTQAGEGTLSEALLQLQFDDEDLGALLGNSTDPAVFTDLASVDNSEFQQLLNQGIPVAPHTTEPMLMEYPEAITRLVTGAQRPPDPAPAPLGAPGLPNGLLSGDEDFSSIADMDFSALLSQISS

B1: NF-kB consensus WT (dsDNA)
DNA 1: AGTTGAGGGGACTTTCCCAGGC
DNA 2: GCCTGGGAAAGTCCCCTCAACT
As for B1, the binding result (in data set [1]; with NF-kB p65) was “binds” throughout.

B2: GATA-1 consensus (dsDNA)
DNA 1: AATTGGACCGTATCTCCC
DNA 2: GGGAGATACGGTCCAATT
Turning to B2, the binding result in data set [2] is given as “no binding”.

B3: Sp-1 consensus (dsDNA)
DNA 1: ATTCGATCGGGCGGGGCGAG
DNA 2: CTCGCCCCGCCCGATCGAAT
Take B3: in data set [2], the binding result is given as “no binding”.

B4: CREB consensus (dsDNA)
DNA 1: AGAGATTGCCTGACGTCAGACAGCTAG
DNA 2: CTAGCTGTCTGACGTCAGGCAATCTCT
As to B4, in data set [2], the binding result is “no binding”.

B5: AP-1 consensus (dsDNA)
DNA 1: CGCTTGATGAGTCAGCCGGAA
DNA 2: TTCCGGCTGACTCATCAAGCG
In the case of B5, the binding result in data set [2] is “binds”.
